Data from patent US20260053892A1, “Induction and Expansion of Regulatory T Cells” (Board of Regents of the University of Nebraska, priority 2022, published 2026).

Experiments:
[1] = 3 or 6 μg/kg/day, cited from earlier work
[2] = in vivo; cited from earlier work
[3] = test system: Tregs; assay: Treg profiles by flow cytometry in blood, lymph nodes and spleen of treated mice; format: in vivo, C57BL/6 male mice
Method: C57BL/6 male mice (5-6 weeks old) were purchased from Jackson Laboratories (Bar Harbor, ME). […] Following a period of acclimation, mice were injected intraperitoneally (i.p.) with daily GM-CSF (Group 4) (Days 0-4). […] On Day 10, the mice were sacrificed, blood was collected, and spleen and lymph nodes were harvested.
Following treatment, whole blood, lymph nodes and spleens were collected to determine T-cell profiles via flow cytometric analysis. Peripheral blood, lymph nodes, and splenocytes were fluorescently labeled using antibodies against cell surface antigens including CD3, CD4, CD25, CD8, CD19, CD127, ICOS, GITR, CD39, CD62L, CD44, GITR, and CTLA-4, and for the intracellular markers FoxP3 and STAT5. Whole blood, lymph nodes, and splenocytes were labeled with PerCP Cyanine 5.5-anti-CD3 (eBioscience/Thermo Fisher Scientific, Waltham, MA), APC-anti-CD19 (eBiosciences), PE-anti-CD25 (eBiosciences), PE-cyanine7-anti-CD4 (eBiosciences), PerCP-eFluor710-anti-CD39 (eBiosciences), Alexa Fluor™ 488-anti-CD278 (ICOS) (Biolegend, San Diego, CA), FITC-anti-CD127 (Biolegend), FITC-anti-CD44, Alexa Fluor™ 488-anti-CTLA-4, Alexa Flour™ 700-anti-GITR, FITC-anti-CD8, and PerCP Cyanine 5.5-anti-CD62L. Intracellular staining was performed following permeabilization for 45 minutes at 4° C. Cells were labeled with APC-anti-FoxP3 (eBioscience) or anti-STAT5-Pacific Blue. Samples were analyzed with an LSRII flow cytometer and FACSDiva™ Software (BD Biosciences, San Diego, CA).
All values are expressed as mean±SEM using ANOVA (mean±SEM, n=3). *=p≤0.05; **=p≤0.01; *** p≤0.001. Data were analyzed using GraphPad Prism 9.3.1 software (La Jolla, CA).

| Molecule | Treg numbers [1] | Unified Parkinson's Disease Rating Scale (UPDRS) scores [1] | Safety and tolerability ([1]; low doses) | half-life [2] | CD4+CD25+FOXP3+ Tregs ([3]; blood, FIG. 4) | CD25+CD127− Tregs ([3]; blood, FIG. 5) | CD25+ICOS+ Tregs ([3]; blood, FIG. 7) | CD4+CD25+ Tregs ([3]; lymph nodes, FIG. 2) | CD25+GITR+ Tregs ([3]; lymph nodes, FIG. 9) | CD4+CD25+FOXP3+ Tregs ([3]; spleen, FIG. 3) | CD25+CD127− Tregs ([3]; spleen, FIG. 6) | CD25+ICOS+ Tregs ([3]; spleen, FIG. 8) | CD25+CD39+ Tregs ([3]; spleen, FIG. 10) | CD25+CD62L− Tregs ([3]; spleen, FIG. 11) |
| --- | --- | --- | --- | --- | --- | --- | --- | --- | --- | --- | --- | --- | --- | --- |
| sargramostim: human recombinant GM-CSF (sargramostim, Leukine®) | increased | modestly improved | safe and well-tolerated | – | – | – | – | – | – | – | – | – | – | – |
| granulocyte-macrophage colony-stimulating factor (protein, UniProt P01587 18-141, looked up, granulocyte-macrophage colony-stimulating factor, immunomodulatory growth factor; 0.1 mg/kg i.p. in mice) Granulocyte-macrophage …: APTRSPITVTRPWKHVEAIKEALNLLDDMPVTLNEEVEVVSNEFSFKKLTCVQTRLKIFEQGLRGNFTKLKGALNMTASYYQTYCPPTPETDCETQVTTYADFIDSLKTFLTDIPFECKKPGQK | – | – | – | six | did not induce | did not induce | did not significantly induce | only a mild increase | did not induce | did not induce | did not induce | did not significantly induce | did not induce | did not significantly induce |
